{"source": "patent US20030134779A1", "about": "“Method and composition for treatment and/or prevention of antibiotic-resistant microorganism infections” (priority 2002, published 2003)", "molecules": {"B1": {"name": "LF: bovine lactoferrin, 80-kDa iron-binding glycoprotein found in milk (protein, UniProt P24627 20-708, looked up)", "Lactotransferrin": "APRKNVRWCTISQPEWFKCRRWQWRMKKLGAPSITCVRRAFALECIRAIAEKKADAVTLDGGMVFEAGRDPYKLRPVAAEIYGTKESPQTHYYAVAVVKKGSNFQLDQLQGRKSCHTGLGRSAGWIIPMGILRPYLSWTESLEPLQGAVAKFFSASCVPCIDRQAYPNLCQLCKGEGENQCACSSREPYFGYSGAFKCLQDGAGDVAFVKETTVFENLPEKADRDQYELLCLNNSRAPVDAFKECHLAQVPSHAVVARSVDGKEDLIWKLLSKAQEKFGKNKSRSFQLFGSPPGQRDLLFKDSALGFLRIPSKVDSALYLGSRYLTTLKNLRETAEEVKARYTRVVWCAVGPEEQKKCQQWSQQSGQNVTCATASTTDDCIVLVLKGEADALNLDGGYIYTAGKCGLVPVLAENRKSSKHSSLDCVLRPTEGYLAVAVVKKANEGLTWNSLKDKKSCHTAVDRTAGWNIPMGLIVNQTGSCAFDEFFSQSCAPGADPKSRLCALCAGDDQGLDKCVPNSKEKYYGYTGAFRCLAEDVGDVAFVKNDTVWENTNGESTADWAKNLNREDFRLLCLDGTRKPVTEAQSCHLAVAPNHAVVSRSDRAAHVKQVLLHQQALFGKNGKNCPDKFCLFKSETKNLLFNDNTECLAKLGGRPTYEEYLGTEYVTAIANLKKCSTSPLLEACAFLTR"}}, "type_in_all_cases": "cell-based, Staphylococcus aureus", "key": {"S. aureus PC-1 [1]": {"tested_on": "S. aureus PC-1", "assay": "Cell morphology by transmission electron microscopy", "conditions": "exposure to LF or LFC", "description": "Bacterial cells were grown overnight on MHA or MHB containing sub-MICs of penicillin G with or without LF or LFC. Microorganisms were prepared for transmission electron microscopy by fixation with glutaraldehyde followed by ferritin labelling. This method allows good- preservation of capsular material. Briefly, bacterial cells grown in the presence or absence of antibiotics were fixed in cacodylate buffer (0.1 M, pH 7.0) containing 5% (v/v) glutaraldehyde, for 2 h at 20° C. Fixed microorganims were suspended in cacodylate buffer and allowed to react with the polycationic ferritin (Sigma Chemicals, St-Louis, Mo.; final concentration 1.0 mg/ml) for 30 min at 20° C. The reaction was slowed down by 10-fold dilution with buffer, and the microorganisms were centrifuged and washed three times in cacodylate buffer. Bacterial cells were then immobilized in 4% (w/v) agar, washed 5 times in cacodylate buffer and post-fixed with 2% (w/v) osmium tetroxide for 2 h. […]\nBacterial cells of PC-1 (a constitutively high producing β-lactamase strain) were grown overnight in MHB containing 8 μg/ml of penicillin G, 16 μg/ml of LFC alone or in combination for 4-h at 37° C. with agitation at 150 rpm. Bacteria cell morphology was evaluated by transmission electron microscopy after fixation and ferritin labelling method as previously described."}, "S. aureus": {"tested_on": "S. aureus", "assay": "Growth inhibition and influence of iron", "description": "The effect of LF or LFC at concentration sub-MICs alone or in combination with sub-MICs of antibiotics on bacterial growth rate of S. aureus, E. coli and K. pneumoniae was determined by monitoring bacterial cultures in MHB with the O.D.600 nm or by the count of colony forming unit per ml (cfu/ml). A volume of 2.5 ml of overnight cultures in MHB adjusted to 0.5-1 McFarland standard in saline were used to inoculate a final volume of 25 ml of fresh MHB containing the desired concentration of tested compounds. All flasks were then incubated at 37° C. with agitation (200 rpm) for 9 h. Aliquots were removed every hour to determine the culture turbidity using the spectrophotometer Philips PU 8800 (Pye Unican Ltd, Cambridge, UK). The combined antibiotic effect on bacterial growth was also determined using concentrations of LF in the presence of different concentrations of antibiotics. Briefly, a volume of 3 ml of fresh MHB containing desired concentration of drugs was adjusted to an optical density of 0.4 at 540 nm after an overnight culture. The culture was then incubated at 37° C with agitation (200 rpm). After incubation, aliquots were removed to determine the culture turbidity (OD540nm) or cfu/ml. To determine the influence of the level of iron on of the growth inhibition by the test compound, 5 μM of FeCl3 were added to the media."}, "S. aureus SHY97-4320 [2]": {"tested_on": "S. aureus SHY97-4320", "assay": "SDS-PAGE protein profile of whole cells", "description": "Staphylococcus aureus SHY97-4320 cells growth in MHB containing test compounds were suspended in electrophoresis sample buffer containing 2% sodium dodecyl sulfate (SDS) and 5% 2-mercaptoethanol to a final concentration of 0.1 g per ml. The samples were heated to 100° C. for 5 min before being loaded for electrophoresis on a discontinuous 0.1% SDS-polyacrylamide gel (SDS PAGE) with 6% polyacrylamide stacking gel and 10 or 12% polyacrylamide running gel. Gels were run on a Mini-Protean® II apparatus (Bio Rad laboratories, Richmond, Calif.). Protein profiles were visualised by staining with coomassie brilliant blue R-250 or by silver staining."}, "S. aureus PC-1 [3]": {"tested_on": "S. aureus PC-1", "assay": "Checkerboard MICs and FIC index, penicillin with bovine LF", "description": "(§1) The MICs were determined by both macrodilution (1 ml/tube) and microdilution (100 μl/well) in sterile 96 well microtiter plates (International Nunc, Napierville, Ill.) techniques in three separate experiments according to the National Committee for Clinical Laboratory Standards (1992 and 1999) in three separate experiments. Serial 2-fold dilutions in MHB of LF, LFC, antibiotic or combination of LF or LFC with antibiotic were inoculated with an overnight culture at a final inoculum of 10^6 cfu/ml in MHB. Effect of LF combination with antibiotic on MICs were determined by adding 0.5 mg or 1 mg/ml of LF to each antibiotic dilution. The MIC was defined as the lowest concentration of drug (highest dilution) that caused a complete inhibition of bacterial growth after an incubation of 18 h. Effect of LF or LFC combination with antibiotic on MIC was also determined by checkerboard method using 96 well microtiter plates. Each antibiotic dilution (50 μl) was serially added to the wells in vertical rows starting from the top (lower dilution) to the bottom. Lactoferrin or LFC (50 μl) were added to 50 μl of each antibiotic dilution and serially diluted starting at the left (lower dilution) to the right. After inoculation, the final concentration of antibiotic from top to bottom were 32 to 8, 2 to 0.5, 0.5 to 0.125 μg/ml for penicillin, cefazolin and neomycin, respectively. From left to right, the concentration of LF or LFC were 25 to 0.0244 mg/ml or 256 to 0.5 μg/ml respectively in a final volume of 100 μl/well. The microplate's were incubated at 37° C. for 24 h. Bacterial growth was measured optically at 540 nm using Spectra Max 250 Microplate Spectrophotometer System of Molecular Device (Fisher Scientific, Ottawa, Canada). Tubes were incubated at 37° C. for 18 h and bacterial growth was measured by visual examination and optically at 540 nm using a spectrophotometer (Philips PU 8800; Pye Unican Ltd, Cambridge, UK). The fractional inhibitory concentration (FIC) was calculated as described by Eliopoulos and Moellering (1991).\n(§2) FIC antibiotic A=MICantibiotic A (in the presence of antibiotic B)/MICantibiotic A alone. FIC Index=FICantibiotic A+FICantibiotic B\n(§3) The effects of the antibiotics were considered to be synergistic or indifferent when FIC Index was<1 or>1, respectively."}, "S. aureus ATCC 25923": {"tested_on": "S. aureus ATCC 25923", "assay": "Checkerboard MICs and FIC index, penicillin with bovine LF", "description": "as §1, §2, §3"}, "S. aureus SHY97-3906": {"tested_on": "S. aureus SHY97-3906", "assay": "Checkerboard MICs and FIC index, penicillin with bovine LF", "description": "as §1, §2, §3"}, "S. aureus SHY97-4320 [4]": {"tested_on": "S. aureus SHY97-4320", "assay": "Checkerboard MICs and FIC index, penicillin with bovine LF", "description": "as §1, §2, §3"}, "[5]": {"conditions": "in combination with penicillin, checkerboard"}}, "data": [{"molecule": "B1", "values": [{"measurement": "shape and size of cells", "setting": "S. aureus PC-1 [1]", "result": "affected the shape and the size"}, {"measurement": "effect of addition of 5 μM of FeCl3 on LF growth inhibitory activity", "setting": "S. aureus", "result": "did not affect"}, {"measurement": "growth inhibitory activity", "setting": "S. aureus; bovine LF saturated to 16.2% of iron", "result": "demonstrated a growth inhibitory activity"}, {"measurement": "proteins of approximately 59, 42 and 27 kDa in protein profile", "setting": "S. aureus SHY97-4320 [2]; 1 mg/ml LF in combination to 8 μg/ml penicillin G", "result": "absent"}, {"measurement": "proteins of approximately 59, 42 and 27 kDa in protein profile", "setting": "S. aureus SHY97-4320 [2]; compound alone: 8 μg/ml penicillin G or 1 mg/ml LF, 4-h of growth", "result": "absent"}, {"measurement": "Decrease (of MIC of LF)", "setting": "S. aureus PC-1 [3]; by combination with penicillin", "result": 64, "unit": "fold"}, {"measurement": "MIC LF", "setting": "S. aureus PC-1 [3]; [5]", "result": 390, "unit": "µg/mL"}, {"measurement": "Decrease (of MIC of LF)", "setting": "S. aureus ATCC 25923; by combination with penicillin", "result": 32, "unit": "fold"}, {"measurement": "MIC LF", "setting": "S. aureus ATCC 25923; [5]", "result": 780, "unit": "µg/mL"}, {"measurement": "Decrease (of MIC of LF)", "setting": "S. aureus SHY97-3906; by combination with penicillin", "result": 16, "unit": "fold"}, {"measurement": "MIC LF", "setting": "S. aureus SHY97-3906; [5]", "result": 1560, "unit": "µg/mL"}, {"measurement": "Decrease (of MIC of LF)", "setting": "S. aureus SHY97-4320 [4]; by combination with penicillin", "result": 64, "unit": "fold"}, {"measurement": "MIC LF", "setting": "S. aureus SHY97-4320 [4]; [5]", "result": 390, "unit": "µg/mL"}]}]}
